B1: NEK8 (parent)
chain: YTFGSNQHGQLGTNTRRGSRAPCK
B2: PLK2 (parent)
chain: MELLRTITYQPAASTKMCEQALGK

Variants of: B1
Assay: protein stability index of a GFP-peptide fusion (GPS, HEK-293T) (PSI 1-6); higher = more stable
Details: c terminus: a fixed tail appended
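Also: lentivirally expressed fusions sorted by FACS into six bins by GFP to DsRed ratio, PSI derived from sequencing read proportions per bin multiplied by bin number.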

Row | Variant | protein stability index
1 | YTFGSNQHGQLGTNTRRGSRAICK [P22I] | 3.94
2 | YTFGSNQHGQLGTNTRRGSRAKCK [P22K] | 3.82
3 | YTFGSNQHGQLGTNTRRGSRALCK [P22L] | 3.4
4 | YTFGSNQHGQLGTNTRRGSRAMCK [P22M] | 3.44
5 | YTFGSNQHGQLGTNTRRGSRANCK [P22N] | 4.22
6 | YTFGSNQHGQLGTNTRRGSRAQCK [P22Q] | 3.73
7 | YTFGSNQHGQLGTNTRRGSRARCK [P22R] | 3.82
8 | YTFGSNQHGQLGTNTRRGSRASCK [P22S] | 3.96
9 | YTFGSNQHGQLGTNTRRGSRATCK [P22T] | 3.95
10 | YTFGSNQHGQLGTNTRRGSRAVCK [P22V] | 3.99
11 | YTFGSNQHGQLGTNTRRGSRAWCK [P22W] | 3.51
12 | YTFGSNQHGQLGTNTRRGSRAYCK [P22Y] | 3.72
13 | YTFGSNQHGQLGTNTRRGSRAPAK [C23A] | 3.95
14 | YTFGSNQHGQLGTNTRRGSRAPDK [C23D] | 4.19
15 | YTFGSNQHGQLGTNTRRGSRAPEK [C23E] | 4.27
16 | YTFGSNQHGQLGTNTRRGSRAPFK [C23F] | 3.61
17 | YTFGSNQHGQLGTNTRRGSRAPGK [C23G] | 3.4
18 | YTFGSNQHGQLGTNTRRGSRAPHK [C23H] | 4.25
19 | YTFGSNQHGQLGTNTRRGSRAPIK [C23I] | 3.59
20 | YTFGSNQHGQLGTNTRRGSRAPKK [C23K] | 4.21
21 | YTFGSNQHGQLGTNTRRGSRAPLK [C23L] | 3.91
22 | YTFGSNQHGQLGTNTRRGSRAPMK [C23M] | 3.61
23 | YTFGSNQHGQLGTNTRRGSRAPNK [C23N] | 4.19
24 | YTFGSNQHGQLGTNTRRGSRAPPK [C23P] | 3.89
25 | YTFGSNQHGQLGTNTRRGSRAPQK [C23Q] | 4.18

Row | Variant | protein stability index
26 | YTFGSNQHGQLGTNTRRGSRAPRK [C23R] | 4
27 | YTFGSNQHGQLGTNTRRGSRAPSK [C23S] | 3.72
28 | YTFGSNQHGQLGTNTRRGSRAPTK [C23T] | 3.9
29 | YTFGSNQHGQLGTNTRRGSRAPVK [C23V] | 4.25
30 | YTFGSNQHGQLGTNTRRGSRAPWK [C23W] | 3.37
31 | YTFGSNQHGQLGTNTRRGSRAPYK [C23Y] | 3.46
32 | YTFGSNQHGQLGTNTRRGSRAPCA [K24A] | 3.45
33 | YTFGSNQHGQLGTNTRRGSRAPCC [K24C] | 2.72
34 | YTFGSNQHGQLGTNTRRGSRAPCD [K24D] | 3.91
35 | YTFGSNQHGQLGTNTRRGSRAPCE [K24E] | 3.77
36 | YTFGSNQHGQLGTNTRRGSRAPCF [K24F] | 2.93
37 | YTFGSNQHGQLGTNTRRGSRAPCG [K24G] | 4.29
38 | YTFGSNQHGQLGTNTRRGSRAPCH [K24H] | 3.52
39 | YTFGSNQHGQLGTNTRRGSRAPCI [K24I] | 3.08
40 | YTFGSNQHGQLGTNTRRGSRAPCL [K24L] | 3.81
41 | YTFGSNQHGQLGTNTRRGSRAPCM [K24M] | 2.94
42 | YTFGSNQHGQLGTNTRRGSRAPCN [K24N] | 3.2
43 | YTFGSNQHGQLGTNTRRGSRAPCP [K24P] | 4.09
44 | YTFGSNQHGQLGTNTRRGSRAPCQ [K24Q] | 3.79
45 | YTFGSNQHGQLGTNTRRGSRAPCR [K24R] | 3.44
46 | YTFGSNQHGQLGTNTRRGSRAPCS [K24S] | 3.24
47 | YTFGSNQHGQLGTNTRRGSRAPCT [K24T] | 3.43
48 | YTFGSNQHGQLGTNTRRGSRAPCV [K24V] | 3.68
49 | YTFGSNQHGQLGTNTRRGSRAPCW [K24W] | 2.59
50 | YTFGSNQHGQLGTNTRRGSRAPCY [K24Y] | 2.63

Variants of: B2
Assay: as above
Details: c terminus: a fixed tail appended

Row | Variant | protein stability index
51 | AELLRTITYQPAASTKMCEQALGK [M1A] | 2.18
52 | CELLRTITYQPAASTKMCEQALGK [M1C] | 1.51
53 | DELLRTITYQPAASTKMCEQALGK [M1D] | 3.64
54 | EELLRTITYQPAASTKMCEQALGK [M1E] | 4.07
55 | FELLRTITYQPAASTKMCEQALGK [M1F] | 2.04
56 | GELLRTITYQPAASTKMCEQALGK [M1G] | 3.84
57 | HELLRTITYQPAASTKMCEQALGK [M1H] | 3.67
58 | IELLRTITYQPAASTKMCEQALGK [M1I] | 2.03
59 | KELLRTITYQPAASTKMCEQALGK [M1K] | 3.84
60 | LELLRTITYQPAASTKMCEQALGK [M1L] | 2.37
61 | NELLRTITYQPAASTKMCEQALGK [M1N] | 4.1
62 | PELLRTITYQPAASTKMCEQALGK [M1P] | 4.09
63 | QELLRTITYQPAASTKMCEQALGK [M1Q] | 3.84
64 | RELLRTITYQPAASTKMCEQALGK [M1R] | 3.04
65 | SELLRTITYQPAASTKMCEQALGK [M1S] | 2.17
66 | TELLRTITYQPAASTKMCEQALGK [M1T] | 3.74
67 | VELLRTITYQPAASTKMCEQALGK [M1V] | 2.23
68 | WELLRTITYQPAASTKMCEQALGK [M1W] | 2.16
69 | YELLRTITYQPAASTKMCEQALGK [M1Y] | 2.54
70 | MALLRTITYQPAASTKMCEQALGK [E2A] | 1.79
71 | MCLLRTITYQPAASTKMCEQALGK [E2C] | 1.93
72 | MDLLRTITYQPAASTKMCEQALGK [E2D] | 2.75

Row | Variant | protein stability index
73 | MFLLRTITYQPAASTKMCEQALGK [E2F] | 1.69
74 | MGLLRTITYQPAASTKMCEQALGK [E2G] | 2.69
75 | MHLLRTITYQPAASTKMCEQALGK [E2H] | 2.05
76 | MILLRTITYQPAASTKMCEQALGK [E2I] | 1.51
77 | MKLLRTITYQPAASTKMCEQALGK [E2K] | 2.7
78 | MLLLRTITYQPAASTKMCEQALGK [E2L] | 2.15
79 | MMLLRTITYQPAASTKMCEQALGK [E2M] | 2.09
80 | MNLLRTITYQPAASTKMCEQALGK [E2N] | 2.61
81 | MPLLRTITYQPAASTKMCEQALGK [E2P] | 2.73
82 | MQLLRTITYQPAASTKMCEQALGK [E2Q] | 1.91
83 | MRLLRTITYQPAASTKMCEQALGK [E2R] | 2.15
84 | MSLLRTITYQPAASTKMCEQALGK [E2S] | 2.38
85 | MTLLRTITYQPAASTKMCEQALGK [E2T] | 2.28
86 | MVLLRTITYQPAASTKMCEQALGK [E2V] | 2.13
87 | MWLLRTITYQPAASTKMCEQALGK [E2W] | 2.57
88 | MYLLRTITYQPAASTKMCEQALGK [E2Y] | 2.03
89 | MEALRTITYQPAASTKMCEQALGK [L3A] | 2.82
90 | MECLRTITYQPAASTKMCEQALGK [L3C] | 2.17
91 | MEDLRTITYQPAASTKMCEQALGK [L3D] | 2.46
92 | MEELRTITYQPAASTKMCEQALGK [L3E] | 2.56
93 | MEFLRTITYQPAASTKMCEQALGK [L3F] | 2.56
94 | MEGLRTITYQPAASTKMCEQALGK [L3G] | 1.89

Source: the supplement of paper PMC10567573
